Reference: patent US20180171024A1

What was measured:
[1] = target: HLA-A2 on cells (tumor cell lines, normal primary cells, PBMCs) (human); test: flow cytometry, IM-9 cells, 10 µg/ml
[2] = target: HLA-A2 on cells (tumor cell lines, normal primary cells, PBMCs) (human); test: flow cytometry, ST486 cells, 10 µg/ml
[3] = target: HLA-A2 on cells (tumor cell lines, normal primary cells, PBMCs) (human); test: flow cytometry, SW620 cells
[4] = target: HLA-A2 on cells (tumor cell lines, normal primary cells, PBMCs) (human); test: flow cytometry, 501A melanoma cells
[5] = target: HLA-A2/WT1-S5 on T2 cells (human); test: flow cytometry, peptide-loaded T2 cells (10^-4-10^-5 M), PE anti-mouse
[6] = target: HLA-A2/WT1-S6 on T2 cells (human); test: as above
[7] = target: HLA-A2/WT1-S3 on T2 cells (human); test: as above
[8] = target: HLA-A2/WT1 126-134 complex on T2 cells (human); test: as above
[9] = target: HLA-A2 on cells (tumor cell lines, normal primary cells, PBMCs) (human); test: flow cytometry, WM-115 melanoma cells
[10] = target: HLA-A2 on cells (tumor cell lines, normal primary cells, PBMCs) (human); test: flow cytometry, cardiac myocytes #6200-2, 10 µg/ml
[11] = target: HLA-A2 on cells (tumor cell lines, normal primary cells, PBMCs) (human); test: flow cytometry, 'Umbryonic cells' #HUE-1, 10 µg/ml
[12] = target: HLA-A2/TyrD-S5 on T2 cells (human); test: flow cytometry, T2 cells loaded with TyrD S5 [..], 10 µg/ml
[13] = target: HLA-A2/TyrD-S11 on T2 cells (human); test: flow cytometry, T2 cells loaded with TyrD S11 [..], 10 µg/ml
[14] = target: HLA-A2/TyrD-S7 on T2 cells (human); test: flow cytometry, T2 cells loaded with TyrD S7 [..], 10 µg/ml
[15] = target: HLA-A2/TyrD-S9 on T2 cells (human); test: flow cytometry, T2 cells loaded with TyrD S9 [..], 10 µg/ml

In the case of BB7.2 (antibody), the MFI [1] is reported as 457, the MFI [2] is reported as 681 and the GeoMean [3] is reported as 369. The MFI [4] was 389, the MFI [5] was 1080 and the MFI [6] was 1670. It also gave an MFI [7] of 1410, an MFI [8] of 2260 and an MFI [9] of 127. It also gave an MFI [10] of 733, an MFI [11] of 553 and an MFI relative to background [12] of 546. It also gave an MFI relative to background [13] of 473, an MFI relative to background [14] of 666 and an MFI relative to background [15] of 768.
